Measured values as given in US6720475, “Nucleic acid sequence encoding FLP recombinase” (Pioneer Hi-Bred International, Inc.).

Legend:
[1] = molecular target: T1, moFLP (FLP recombinase from maize-codon-optimized gene) (Saccharomyces cerevisiae, UniProt P03870 SEQ:1-423); assay: cell_activity; ED50 for excision between genomic FRT sites in BMS cells, PHP5096 plasmid dose; details: chain copies: 4
T1 chain: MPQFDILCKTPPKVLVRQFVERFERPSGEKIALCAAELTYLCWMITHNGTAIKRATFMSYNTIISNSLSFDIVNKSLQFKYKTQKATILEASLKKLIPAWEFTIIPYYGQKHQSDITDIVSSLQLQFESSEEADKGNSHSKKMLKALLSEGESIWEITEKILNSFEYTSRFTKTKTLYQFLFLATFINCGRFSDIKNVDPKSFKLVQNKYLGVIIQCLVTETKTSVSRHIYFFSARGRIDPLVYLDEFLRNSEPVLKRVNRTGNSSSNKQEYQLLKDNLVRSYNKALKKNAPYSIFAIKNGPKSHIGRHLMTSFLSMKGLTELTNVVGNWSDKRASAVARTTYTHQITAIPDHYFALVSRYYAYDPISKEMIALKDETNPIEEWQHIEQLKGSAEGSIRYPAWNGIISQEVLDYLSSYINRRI
Source text: (§1) The moFLP gene produces higher levels of site-specific excision in maize cells than FLPy. The FRT-containing BMS transformants produced in Example IIA were transfected with varied doses of FLP-expressing vectors for site specific excision of genomic transgenic sequences using the methods described above for Example II-C. Plasmids expressing FLP, PHP5095 (FLPy), and PHP5096 (moFLP) are described above for Example I-A (see Table I-A-1). The FRT/moFLP-containing PHP5849 is described above for Example I-F (see Table I-F-1). Control plasmids used were PHP3703 (non-FLP negative control; with UBI promoter and intron, wheat germ agglutinin structural gene, and pinII 3' end), PHP3953 (positive control; with UBI promoter and intron, GUS structural gene, and pinII 3' end), and pUC18 (with no plant expression cassette used as carrier DNA to keep the total DNA load constant). Cell culture methods, DNA bombardment methods, and assay methods were those described above for Example I. The experimental design is shown below in Table II-D-1.
(§2) GUS activity indicating FLP-mediated excision of genomic DNA in cells transfected with FLYy or moFLP is shown below in Tables II-D-2 and II-D-3. The $ED50$ for each FLP expression plasmid shown in Table II-D-3 was manually determined from graphing the data.

[2] = molecular target: T2, FLPy (FLP recombinase from native yeast gene) (Saccharomyces cerevisiae, UniProt P03870 SEQ:1-423); assay: cell_activity; ED50 for excision between genomic FRT sites in BMS cells, PHP5095 plasmid dose; details: tags: expressed in maize cells; chain copies: 4
T2 sequence: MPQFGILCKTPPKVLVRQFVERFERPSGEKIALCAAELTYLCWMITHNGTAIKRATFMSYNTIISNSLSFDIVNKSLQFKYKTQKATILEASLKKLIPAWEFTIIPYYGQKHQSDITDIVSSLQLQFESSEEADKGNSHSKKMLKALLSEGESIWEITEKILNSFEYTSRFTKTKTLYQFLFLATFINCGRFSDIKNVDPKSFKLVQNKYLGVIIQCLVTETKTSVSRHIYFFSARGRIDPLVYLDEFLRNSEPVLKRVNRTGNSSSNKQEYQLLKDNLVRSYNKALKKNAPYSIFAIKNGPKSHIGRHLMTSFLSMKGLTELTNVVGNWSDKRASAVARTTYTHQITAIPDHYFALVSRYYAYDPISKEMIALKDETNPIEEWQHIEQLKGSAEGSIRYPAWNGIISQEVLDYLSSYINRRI
Source text: as §1, §2

B1: FRT site (FRT-1) (dsDNA)
DNA 1: GAAGTTCCTATTCTCTAGAAAGTATAGGAACTTC
DNA 2: GAAGTTCCTATACTTTCTAGAGAATAGGAACTTC
EC50 [1]: 0.03 ug FLP expression vector | EC50 [2]: 0.13 ug FLP expression vector
